Experiment [1] has as its target T1, empty phage T5 capsid, undecorated, produced from the mutant phage T5stAmN5-Δdec (UniProt Q6QGD8 160-458; Q6QGD5 11-403).
T1 chain 1: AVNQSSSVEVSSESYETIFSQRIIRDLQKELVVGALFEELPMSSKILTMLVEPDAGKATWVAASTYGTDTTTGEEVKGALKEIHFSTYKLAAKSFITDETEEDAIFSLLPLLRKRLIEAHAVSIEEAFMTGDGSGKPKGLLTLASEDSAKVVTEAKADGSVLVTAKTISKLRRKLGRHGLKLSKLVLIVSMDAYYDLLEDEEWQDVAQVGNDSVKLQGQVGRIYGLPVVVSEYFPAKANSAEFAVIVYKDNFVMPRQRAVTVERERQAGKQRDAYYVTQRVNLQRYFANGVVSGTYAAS
T1 chain 2: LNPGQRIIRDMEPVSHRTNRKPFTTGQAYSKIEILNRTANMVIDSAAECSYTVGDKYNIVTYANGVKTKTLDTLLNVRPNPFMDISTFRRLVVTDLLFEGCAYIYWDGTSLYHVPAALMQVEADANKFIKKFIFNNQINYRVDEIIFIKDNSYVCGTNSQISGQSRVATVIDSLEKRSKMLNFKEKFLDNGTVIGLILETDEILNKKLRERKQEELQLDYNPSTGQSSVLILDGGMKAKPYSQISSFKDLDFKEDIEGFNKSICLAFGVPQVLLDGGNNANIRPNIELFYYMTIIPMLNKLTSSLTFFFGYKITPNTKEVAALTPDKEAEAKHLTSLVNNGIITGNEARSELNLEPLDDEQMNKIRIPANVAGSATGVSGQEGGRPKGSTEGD
The experiment can be described thus: SPR; 25 °C.

Experiment [2] deals with T2, empty phage T5 capsid, undecorated, produced from the mutant phage T5stAmN5-Δdec (bacteriophage T5, UniProt Q6QGD8 160-458; Q6QGD5 11-403).
T2 construct: devoid of DNA and of pb10, expanded form; also called empty capsids; pure empty capsids
T2 sequence 1: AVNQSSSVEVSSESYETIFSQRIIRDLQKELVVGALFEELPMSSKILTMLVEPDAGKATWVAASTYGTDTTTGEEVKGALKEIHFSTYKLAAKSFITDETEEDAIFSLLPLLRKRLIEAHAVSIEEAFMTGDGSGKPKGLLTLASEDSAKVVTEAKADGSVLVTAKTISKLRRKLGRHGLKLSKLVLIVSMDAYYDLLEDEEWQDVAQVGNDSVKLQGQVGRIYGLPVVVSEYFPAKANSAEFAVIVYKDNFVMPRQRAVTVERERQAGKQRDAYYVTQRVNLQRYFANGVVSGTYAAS
T2 sequence 2: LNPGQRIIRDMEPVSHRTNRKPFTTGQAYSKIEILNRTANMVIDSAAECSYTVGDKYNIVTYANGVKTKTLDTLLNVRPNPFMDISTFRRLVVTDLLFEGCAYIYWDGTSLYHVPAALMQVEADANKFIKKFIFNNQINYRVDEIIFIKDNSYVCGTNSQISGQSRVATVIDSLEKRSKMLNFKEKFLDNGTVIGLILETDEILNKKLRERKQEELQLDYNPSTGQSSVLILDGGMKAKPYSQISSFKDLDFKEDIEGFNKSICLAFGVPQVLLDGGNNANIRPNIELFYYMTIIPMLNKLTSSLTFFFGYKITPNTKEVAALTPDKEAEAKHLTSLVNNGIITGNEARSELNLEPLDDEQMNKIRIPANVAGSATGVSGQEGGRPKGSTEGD
As to the kind of experiment: native agarose gel retardation, [protein]/[binding sites on the capsid] = 1+/-0.1.

In experiment [3] the target is T3, recombinant phage T5 capsid produced from plasmid pETcapT5Δdec (assembled in the absence of pb10) (bacteriophage T5, UniProt Q6QGD8 160-458; Q6QGD5 11-403).
T3 construct: also called capsids produced from the plasmid pETcapT5Δdec; pETcapT5Δpb10 capsids
T3 sequence 1: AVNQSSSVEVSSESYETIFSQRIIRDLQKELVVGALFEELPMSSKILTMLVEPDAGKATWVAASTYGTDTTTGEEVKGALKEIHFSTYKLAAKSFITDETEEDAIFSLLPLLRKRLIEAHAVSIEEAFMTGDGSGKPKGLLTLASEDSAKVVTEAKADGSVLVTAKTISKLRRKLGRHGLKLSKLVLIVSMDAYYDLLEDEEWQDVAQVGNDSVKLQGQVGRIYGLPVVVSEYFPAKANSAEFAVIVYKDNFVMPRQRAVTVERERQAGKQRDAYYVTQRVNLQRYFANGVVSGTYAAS
T3 sequence 2: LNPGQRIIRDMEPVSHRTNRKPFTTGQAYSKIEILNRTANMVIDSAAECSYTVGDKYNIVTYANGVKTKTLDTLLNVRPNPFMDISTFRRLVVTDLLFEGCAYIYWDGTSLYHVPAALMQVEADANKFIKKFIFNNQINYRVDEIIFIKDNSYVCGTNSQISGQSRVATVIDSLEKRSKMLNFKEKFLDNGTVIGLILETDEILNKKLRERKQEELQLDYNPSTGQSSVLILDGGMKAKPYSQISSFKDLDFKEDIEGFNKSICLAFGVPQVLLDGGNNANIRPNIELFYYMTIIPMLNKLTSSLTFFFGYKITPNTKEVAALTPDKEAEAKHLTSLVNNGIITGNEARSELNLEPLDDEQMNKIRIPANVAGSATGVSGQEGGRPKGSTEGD
As to the kind of experiment: native agarose gel retardation.

Experiment [4] has as its target T1, empty phage T5 capsid, undecorated, …. The experiment can be described thus: SPR. For orientation: Surface plasmon resonance follows binding to a sensor surface in real time, without labels.

As usually defined, the Kd is the constant that tells how readily two partners part at equilibrium. Read a high Kd as a looser complex.

B1: decoration protein pb10 of phage T5 (other)
chain: MGIDYSGLRTIFGEKLPESHIFFATVAAHKYVPSYAFLRRELGLSSAHTNRKVWKKFVEAYGKAIPPAPPAPPLTLSKDLTASMSVEEGAALTLSVTATGGTGPYTYAWTKDGSPIPDASGATYTKPTAAAEDAGSYKVTVTDSKQVSKDSTTCAVTVNPTVPGGLE
notes: Monomeric; also called native protein pb10; pb10 H6
For the molecule B1, the results for the Kd in experiment [1] and in experiment [4] were 2.25 pM and 1.11 pM, respectively. Further, the binding result in experiment [2] and in experiment [3] was “binds” each time.

B2: pb10N-Ter-OVAH6 (N-terminal domain of pb10 fused with ovalbumin, His-tagged) (other)
chain: MGIDYSGLRTIFGEKLPESHIFFATVAAHKYVPSYAFLRRELGLSSAHTNRKVWKKFVEAYGKAIPPAPPAPPMGSIGAASMEFCFDVFKELKVHHANENIFYCPIAIMSALAMVYLGAKDSTRTQINKVVRFDKLPGFGDSIEAQCGTSVNVHSSLRDILNQITKPNDVYSFSLASRLYAEERYPILPEYLQCVKELYRGGLEPINFQTAADQARELINSWVESQTNGIIRNVLQPSSVDSQTAMVLVNAIVFKGLWEKAFKDEDTQAMPFRVTEQESKPVQMMYQIGLFRVASMASEKMKILELPFASGTMSMLVLLPDEVSGLEQLESIINFEKLTEWTSSNVMEERKIKVYLPRMKMEEKYNLTSVLMAMGITDVFSSSANLSGISSAESLKISQAVHAAHAEINEAGREVVGSAEAGVDAASVSEEFRADHPFLFCIKHIATNAVLFFGRCVSP
For the molecule B2, the Kd in experiment [1] was found to be 1.22 pM.

B3: pb10-OVAH6 (whole protein pb10 fused with ovalbumin, His-tagged) (other)
chain: MGIDYSGLRTIFGEKLPESHIFFATVAAHKYVPSYAFLRRELGLSSAHTNRKVWKKFVEAYGKAIPPAPPAPPLTLSKDLTASMSVEEGAALTLSVTATGGTGPYTYAWTKDGSPIPDASGATYTKPTAAAEDAGSYKVTVTDSKQVSKDSTTCAVTVNPTVPGGMGSIGAASMEFCFDVFKELKVHHANENIFYCPIAIMSALAMVYLGAKDSTRTQINKVVRFDKLPGFGDSIEAQCGTSVNVHSSLRDILNQITKPNDVYSFSLASRLYAEERYPILPEYLQCVKELYRGGLEPINFQTAADQARELINSWVESQTNGIIRNVLQPSSVDSQTAMVLVNAIVFKGLWEKAFKDEDTQAMPFRVTEQESKPVQMMYQIGLFRVASMASEKMKILELPFASGTMSMLVLLPDEVSGLEQLESIINFEKLTEWTSSNVMEERKIKVYLPRMKMEEKYNLTSVLMAMGITDVFSSSANLSGISSAESLKISQAVHAAHAEINEAGREVVGSAEAGVDAASVSEEFRADHPFLFCIKHIATNAVLFFGRCVSP
Turning to B3, the Kd in experiment [1] was determined as 2.34 pM.
